This note sets out measurements from US20220372093A1 (CUE BIOPHARMA, published 2022).

First the molecules themselves.
B1: Δ14 (receptor)
TβRII polypeptide: VTDNNGAVKFPQLCKFCDVRFSTCDNQKSCMSNCSITSICEKPQEVCVAVWRKNDENITLETVCHDPKLPYHDFILEDAASPKCIMKEKKKPGETFFMCSCSSDECNDNIIFSEEYNTSNPD
notes: also called TβRII Δ14 (N-terminal aas 1-14 deleted)
B2: D32A (receptor)
TβRII polypeptide: IPPHVQKSVNNDMIVTDNNGAVKFPQLCKFCAVRFSTCDNQKSCMSNCSITSICEKPQEVCVAVWRKNDENITLETVCHDPKLPYHDFILEDAASPKCIMKEKKKPGETFFMCSCSSDECNDNIIFSEEYNTSNPDLLLVIFQ
notes: also called TβRII D32A
B3: S52A (receptor)
TβRII polypeptide: IPPHVQKSVNNDMIVTDNNGAVKFPQLCKFCDVRFSTCDNQKSCMSNCSITAICEKPQEVCVAVWRKNDENITLETVCHDPKLPYHDFILEDAASPKCIMKEKKKPGETFFMCSCSSDECNDNIIFSEEYNTSNPDLLLVIFQ
notes: also called TβRII S52A
B4: D118A (receptor)
TβRII polypeptide: IPPHVQKSVNNDMIVTDNNGAVKFPQLCKFCDVRFSTCDNQKSCMSNCSITSICEKPQEVCVAVWRKNDENITLETVCHDPKLPYHDFILEDAASPKCIMKEKKKPGETFFMCSCSSAECNDNIIFSEEYNTSNPDLLLVIFQ
notes: also called TβRII D118A
B5: E119A (receptor)
TβRII polypeptide: IPPHVQKSVNNDMIVTDNNGAVKFPQLCKFCDVRFSTCDNQKSCMSNCSITSICEKPQEVCVAVWRKNDENITLETVCHDPKLPYHDFILEDAASPKCIMKEKKKPGETFFMCSCSSDACNDNIIFSEEYNTSNPDLLLVIFQ
notes: also called TβRII E119A
B6: T51A (receptor)
TβRII polypeptide: IPPHVQKSVNNDMIVTDNNGAVKFPQLCKFCDVRFSTCDNQKSCMSNCSIASICEKPQEVCVAVWRKNDENITLETVCHDPKLPYHDFILEDAASPKCIMKEKKKPGETFFMCSCSSDECNDNIIFSEEYNTSNPDLLLVIFQ
notes: also called TβRII T51A
B7: S49A (receptor)
TβRII polypeptide: IPPHVQKSVNNDMIVTDNNGAVKFPQLCKFCDVRFSTCDNQKSCMSNCAITSICEKPQEVCVAVWRKNDENITLETVCHDPKLPYHDFILEDAASPKCIMKEKKKPGETFFMCSCSSDECNDNIIFSEEYNTSNPDLLLVIFQ
notes: also called TβRII S49A
B8: D32N (receptor)
TβRII polypeptide: IPPHVQKSVNNDMIVTDNNGAVKFPQLCKFCNVRFSTCDNQKSCMSNCSITSICEKPQEVCVAVWRKNDENITLETVCHDPKLPYHDFILEDAASPKCIMKEKKKPGETFFMCSCSSDECNDNIIFSEEYNTSNPDLLLVIFQ
notes: also called TβRII D32N
B9: I50A (receptor)
TβRII polypeptide: IPPHVQKSVNNDMIVTDNNGAVKFPQLCKFCDVRFSTCDNQKSCMSNCSATSICEKPQEVCVAVWRKNDENITLETVCHDPKLPYHDFILEDAASPKCIMKEKKKPGETFFMCSCSSDECNDNIIFSEEYNTSNPDLLLVIFQ
notes: also called TβRII I50A
B10: I53A (receptor)
TβRII polypeptide: IPPHVQKSVNNDMIVTDNNGAVKFPQLCKFCDVRFSTCDNQKSCMSNCSITSACEKPQEVCVAVWRKNDENITLETVCHDPKLPYHDFILEDAASPKCIMKEKKKPGETFFMCSCSSDECNDNIIFSEEYNTSNPDLLLVIFQ
notes: also called TβRII I53A
B11: F30A (receptor)
TβRII polypeptide: IPPHVQKSVNNDMIVTDNNGAVKFPQLCKACDVRFSTCDNQKSCMSNCSITSICEKPQEVCVAVWRKNDENITLETVCHDPKLPYHDFILEDAASPKCIMKEKKKPGETFFMCSCSSDECNDNIIFSEEYNTSNPDLLLVIFQ
notes: also called TβRII F30A
B12: E55A (receptor)
TβRII polypeptide: IPPHVQKSVNNDMIVTDNNGAVKFPQLCKFCDVRFSTCDNQKSCMSNCSITSICAKPQEVCVAVWRKNDENITLETVCHDPKLPYHDFILEDAASPKCIMKEKKKPGETFFMCSCSSDECNDNIIFSEEYNTSNPDLLLVIFQ
notes: also called TβRII E55A
B13: L27A (receptor)
TβRII polypeptide: IPPHVQKSVNNDMIVTDNNGAVKFPQACKFCDVRFSTCDNQKSCMSNCSITSICEKPQEVCVAVWRKNDENITLETVCHDPKLPYHDFILEDAASPKCIMKEKKKPGETFFMCSCSSDECNDNIIFSEEYNTSNPDLLLVIFQ
notes: also called TβRII L27A
B14: V77A (receptor)
TβRII polypeptide: IPPHVQKSVNNDMIVTDNNGAVKFPQLCKFCDVRFSTCDNQKSCMSNCSITSICEKPQEVCVAVWRKNDENITLETACHDPKLPYHDFILEDAASPKCIMKEKKKPGETFFMCSCSSDECNDNIIFSEEYNTSNPDLLLVIFQ
notes: also called TβRII V77A
B15: E119Q (receptor)
TβRII polypeptide: IPPHVQKSVNNDMIVTDNNGAVKFPQLCKFCDVRFSTCDNQKSCMSNCSITSICEKPQEVCVAVWRKNDENITLETVCHDPKLPYHDFILEDAASPKCIMKEKKKPGETFFMCSCSSDQCNDNIIFSEEYNTSNPDLLLVIFQ
notes: also called TβRII E119Q
B16: S52L (receptor)
TβRII polypeptide: IPPHVQKSVNNDMIVTDNNGAVKFPQLCKFCDVRFSTCDNQKSCMSNCSITLICEKPQEVCVAVWRKNDENITLETVCHDPKLPYHDFILEDAASPKCIMKEKKKPGETFFMCSCSSDECNDNIIFSEEYNTSNPDLLLVIFQ
notes: also called TβRII S52L

The target in one test is T1, TGF-β3 (Homo sapiens, UniProt P10600).
T1 construct: also called transforming growth factor beta 3
T1 sequence (TGF-β3 polypeptide, looked up): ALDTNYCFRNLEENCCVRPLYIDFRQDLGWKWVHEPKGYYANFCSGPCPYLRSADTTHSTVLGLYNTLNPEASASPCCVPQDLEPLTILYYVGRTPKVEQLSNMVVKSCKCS
Description: not stated on the sheet; drawn table of Kd of TβRII variants (paragraph 345 cites Groppe et al. 2008 and De Crescenzo et al. 2006).
With B1, the Kd (usually the free concentration of one partner at which half of the binding sites on the other are occupied at equilibrium, for simple one-to-one binding) was found to be 680 nM.

For another test, the target named is T2, TGF-β1 (Homo sapiens, UniProt P01137).
T2 construct: also called transforming growth factor beta 1
T2 sequence (P01137 279-390 limits assumed): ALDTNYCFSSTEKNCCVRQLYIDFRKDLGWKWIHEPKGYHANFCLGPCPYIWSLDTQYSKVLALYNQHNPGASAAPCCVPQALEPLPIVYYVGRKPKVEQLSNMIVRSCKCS
Described as above.
Take B1: the Kd turned out to be 320 nM. In other words, the sub-micromolar range. With B2, the equilibrium dissociation constant (Kd) is 3520 nM. Molecule B3 yielded a Kd of 600 nM.

Take B4: binding was characterised by a dissociation constant (Kd) of 1510 nM. This Kd is about 2.5-fold higher than that of the molecule before. Same read-out and setting: for B5 the value was 3350 nM. The molecule B6 showed a Kd of 2970 nM. B7: binding was put at a Kd of 790 nM. Consider B8, for which binding was put at a Kd of 5900 nM.

B9 registered a Kd of 7960 nM. The molecule B10 displayed a Kd of 2490 nM. Consider B11, for which the Kd stood at 44000 nM. Same read-out and setting: the result for B12 reads 2990 nM. Take B13: the Kd came out at 7970 nM. The molecule B14 yielded a Kd of 690 nM. Molecule B15 came in with a Kd of 5950 nM.

B16 displayed a Kd of 154000 nM.
